{"source": "patent WO1997049805A2", "about": "(dated 1997)", "biological_target": "hen egg-white lysozyme (hen, UniProt P00698 19-147)", "assay": "method not stated"}
{"binder": "cAb-Lys3 (VHH) VHH: DVQLQASGGGSVQAGGSLRLSCAASGYTIGPYCMGWFRQAPGKEREGVAAINMGGGITYYADSVKGRFTISQDNAKNTVYLLMNSLEPEDTAIYYCAADSTIYASYYECGHGLSTGGYGYDSWGQGTQVTVSS", "values": [{"measurement": "Ka", "result": "2e+07", "unit": "M⁻¹"}]}
